This passage reports percent binding (WT = 100%) and percent decrease in binding against WT results from paper PMC4676693.

Common to all, as to assay: SPR; Biacore T200; anti-His antibody amine-coupled on a CM5 chip captures the His-tagged receptor (100 nM FcγRIa, 300 nM FcγRIIa_R131 and FcγRIIb, 200 nM FcγRIIIa_V158, 200 nM FcRn); IgG1 glycovariant, Fc-fragment or pre-incubated IgG1 complex injected as analyte (FcγRI 100 nM, FcγRIIa/b 300 nM, FcγRIIIa 200 nM); non-kinetic comparison, WT set as 100%; HBS-N (10 mM HEPES, pH 7.4, 150 mM NaCl)
On the technique in general: SPR reads the build-up and loss of mass on a sensor chip optically.

Assay [1] has as its target His-tagged FcγRIIIa_V158 (human).
For assay [2], the target named is His-tagged FcγRIIa_R131 (human).
The target of assay [3] is His-tagged FcγRIIb (human) (UniProt P31994).
The target in the next assay is His-tagged FcγRI (human) (UniProt P12314).
Chain of UniProt P12314 (P12314 16-374): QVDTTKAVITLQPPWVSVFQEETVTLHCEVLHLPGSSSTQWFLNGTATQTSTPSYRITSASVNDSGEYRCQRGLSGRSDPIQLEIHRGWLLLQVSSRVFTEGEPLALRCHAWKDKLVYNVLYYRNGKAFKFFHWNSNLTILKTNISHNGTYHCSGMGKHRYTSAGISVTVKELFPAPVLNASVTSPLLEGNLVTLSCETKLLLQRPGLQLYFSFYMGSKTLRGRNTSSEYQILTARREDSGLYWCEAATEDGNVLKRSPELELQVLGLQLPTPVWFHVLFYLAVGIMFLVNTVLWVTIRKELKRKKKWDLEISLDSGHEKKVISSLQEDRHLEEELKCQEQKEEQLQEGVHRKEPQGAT

Chain of UniProt P31994 (P31994 43-310): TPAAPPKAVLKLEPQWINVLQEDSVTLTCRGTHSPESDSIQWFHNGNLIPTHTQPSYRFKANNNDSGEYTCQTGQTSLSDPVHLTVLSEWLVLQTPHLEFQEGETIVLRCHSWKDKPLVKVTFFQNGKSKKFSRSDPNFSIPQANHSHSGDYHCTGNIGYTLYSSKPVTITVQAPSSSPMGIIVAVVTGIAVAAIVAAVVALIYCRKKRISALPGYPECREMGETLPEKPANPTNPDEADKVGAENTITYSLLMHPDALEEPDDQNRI

As for M3 IgG1 glycovariant (antibody), the percent binding (WT = 100%) in assay [1] is 70%; in assay [2], 45%; in assay [3], 65%.

In the case of G0 IgG1 glycovariant (antibody), the percent binding (WT = 100%) in assay [1] was 75%. Take “deglycosylated IgG1 glycovariant (antibody)”: in the assay with His-tagged FcγRI (human), the percent decrease in binding against WT came to 40%.

The substance G1+1SA IgG1 glycovariant (antibody) gave a percent binding (WT = 100%) in assay [1] of 75%. Take G1 IgG1 glycovariant (antibody): the percent binding (WT = 100%) in assay [1] amounted to 75%.
